Results taken from PMC8138769.

Legend:
[1] = target: H-2K^b (heavy chain with murine β2-microglobulin) (mouse | murine)
[2] = target: Ly49C natural killer domain (NKD), high-affinity mutant (V141K, S171G, E193G, R223K) (murine); assay: AUC; sedimentation velocity, 20 °C, absorbance optics, 40,000 rpm; 4.2 μM Ly49C NKD, 3.7 μM peptide/MHC complex, and a mixture of the two; 10 mM HEPES pH 7.4, 150 mM NaCl, 3 mM EDTA, 0.005% surfactant P20
[3] = target: Ly49C natural killer domain (NKD), high-affinity mutant (V141K, S171G, E193G, R223K) (murine); assay: ITC

MMTV gp70 peptide (MMTV; ANYDFICV) gave an apparent Tm of the peptide/H-2K^b complex by differential scanning fluorimetry [1] of 54 °C.
“Ly49C natural killer domain (NKD), high-affinity mutant (V141K, S171G, E193G, R223K) (domain or fragment)” was tested, and the stoichiometry N [2] was 2.
Work on “H-2K^b in complex with the ovalbumin peptide (OVA; SIINFEKL) (from UniProt P01887) (peptide-MHC)” yielded a Kd [3] of 1.9 µM, a dH [3] of 2 kcal/mol and a stoichiometry N [3] of 1.
For “H-2K^b presenting the MMTV gp70 peptide (MMTV; ANYDFICV) (from UniProt P01887 21-119) (peptide-MHC)”, the Kd [3] was 8 µM, the dH [3] was 2.3 kcal/mol and the stoichiometry N [3] was 1.
ovalbumin peptide (OVA; SIINFEKL) gave an apparent Tm of the peptide/H-2K^b complex by differential scanning fluorimetry [1] of 58 °C.
